According to article PMC9249833:

Target: HisTmod (His-tagged recombinant AjTmod) (Apostichopus japonicus)
Test: MST; Monolith NT.115; His-tagged AjTmod labelled with NT-647-NHS (about 5 uM), 16 serial concentrations of the unlabelled partner; 50 mM Tris-HCl pH 8.0, 0.02% Tween 20; 25 °C; three repeats

“GSTFliC fusion protein (GST-fused Vibrio splendidus AJ01 flagellin C) (natural protein)” gave a Kd of 8.6 nM.
